From patent US20150299268A1

Columns and labels:
Experiment in all cases: ELISA
gp120-JR48.1-ScFV = biological target: gp120-JR48.1-ScFV
BaL-gp120 (HIV-1 BaL) = biological target: BaL-gp120 (HIV-1 BaL)
gp120-b12-ScFV = biological target: gp120-b12-ScFV
gp120-JR4-ScFV = biological target: gp120-JR4-ScFV
FLSC R/T (HIV-1) = FLSC R/T (HIV-1) (UniProt P01730)
gp120-VRC01-ScFV = biological target: gp120-VRC01-ScFV

| Substance | Fold of Ab needed for ELISA binding OD equal to half max on gp120 (gp120-JR48.1-ScFV) [fold] | Fold of Ab needed for ELISA binding OD equal to half max on gp120 (BaL-gp120 (HIV-1 BaL)) [fold] | Fold of Ab needed for ELISA binding OD equal to half max on gp120 (gp120-b12-ScFV) [fold] | Fold of Ab needed for ELISA binding OD equal to half max on gp120 (gp120-JR4-ScFV) [fold] | Fold of Ab needed for ELISA binding OD equal to half max on gp120 (FLSC R/T (HIV-1)) [fold] | Fold of Ab needed for ELISA binding OD equal to half max on gp120 (gp120-VRC01-ScFV) [fold] |
| --- | --- | --- | --- | --- | --- | --- |
| PG04 (antibody) | 0.36 | 1 | > 100 | 0.26 | – | – |
| PGT128 (antibody) | 0.14 | 1 | 0.09 | 0.13 | 5.07 | 0.23 |
| A32 (antibody) | 0.1 | 1 | 0.06 | > 100 | 0.04 | 0.2 |
